{"source": "patent US10106589B2", "about": "“Compositions and methods for immunomodulation” (FUNDACIO INSTITUT D'INVESTIGACIO BIOMEDICA DE BELLVITGE …, priority 2011, dated 2018)", "key": {"human Mo-DCs [1]": {"test_system": "human Mo-DCs", "test": "Flow cytometry of cell surface markers on treated, LPS-matured Mo-DCs", "type": "cell-based", "design": "key to HLA-DR / CD40 / CD83 / CD86 / CD14 / CD1a / CCR7: (−) negligible; (+) low; (++) moderate; (+++) high", "experimental": "Peripheral blood mononuclear cells (PBMCs) were obtained from buffy coat preparations belonging to healthy donors from the Blood and Tissue Bank (Barcelona, Spain) after Ficoll-Paque™ density centrifugation (GE Healthcare Bio-Sciences AB; Uppsala, Sweden). Monocytes were purified by two different methods: 1) Cells were plated at 1×10^6 cells/ml in 60 mm culture plates (Corning, Spain) in RPMI without serum and allowed to adhere for 2 h at 37° C. in 5% CO2. The non-adherent cells were removed by washing in PBS. […] 2) Cells were purified using colloidal super-paramagnetic microbeads conjugated with monoclonal mouse anti-human CD14 antibodies (MACS, Miltenyi Biotec, Auburn, Calif., or EasySep® Positive Selection Cocktail, StemCell Technologies, Grenoble, France). The purity of CD14^+ cells was tested by CD14 staining and flow cytometry analysis (>90% CD14^+ cells). Monocyte-derived DCs (Mo-DCs) were generated supplementing the monocyte cultures with complete RPMI 1640 medium plus GM-CSF (800 UI/ml) and IL-4 (500 UI/ml) (both from Gentaur, Kampenhout, Belgium) at day 0 and day 3 of culture. For DC maturation, at day 5 iDCs were further stimulated for 48 h with 5 μg/ml LPS (Escherichia coli 055.B5, Sigma L2880, Copenhagen, Denmark).\nCell surface phenotypes were analyzed using the following monoclonal antibodies: FITC-conjugated anti-HLA-DR (Immu-357), FITC-conjugated anti-CD83 (HB15a), FITC-conjugated anti-CD14 (RMO52), PE-conjugated anti-CD40 (MAB89), PE-conjugated anti-CD1a (BL6), PE-conjugated anti-CD80 (MAB104), PE-conjugated anti-CD86 (HA5.2B7) (all from Beckman-Coulter), Alexa Fluor 488-conjugated anti-CCR7 (TG8/CCR7, Biolegend, San Diego, Calif.), and the respective isotype controls from the same commercial sources. After washing with PBS, cells were subsequently stained with 3 μl MoAb/10^5 cells in 100 μl of FACS buffer (PBS containing 1% BSA and 0.1% sodium azide) for 20 min at room temp. Stained cells were analysed using a FACScalibur (Becton Dickinson). Mo-DCs were gated according to forward scatter (FSC) and side scatter (SSC) parameters. The results were analysed using CellQuestPro software (Becton Dickinson).\nBoth the different C4BP isoforms (α7β1, α7β0 and α6β0), and Factor H were added at 2, 5 and 10 μg/ml throughout Mo-DC differentiation, maturation, or both. Namely, for the differentiation assays the proteins were added at day 0 and replenished at day 3. For the maturation assays the proteins were added at day 5, either alone or combined with LPS. Finally, for the differentiation plus maturation assays the proteins were added at days 0, 3 and 5 (at the last time point, combined with LPS)."}, "LPS-matured human Mo-DCs": {"test_system": "LPS-matured human Mo-DCs", "test": "DC cytokine secretion (Th1/Th2 Flow cytomix Multiplex)", "type": "cell-based", "design": "key to IL-12 / IL-6 / IL-8 / IL-10 / TNF-α / IFN-γ: (−) negligible; (+) low; (++) moderate; (+++) high", "experimental": "Concentrations of IL-12p70, TNF-α, IFN-γ, IL-10, IL-6 and IL-8, were determined from DC supernatants treated with the C4BP isoforms α7β1 and α7β0 using the Th1/Th2 Flow cytomix Multiplex kit (Bender-Medsystems, Viena, Austria), according to the manufacturer's instructions."}, "human Mo-DCs [2]": {"test_system": "human Mo-DCs", "test": "Apoptosis determination (Annexin V / 7-ADD)", "type": "cell-based", "design": "key: (−) negligible; (+) low; (++) moderate; (+++) high", "settings": "viability; treated and LPS-induced DCs", "from_the_text": "Double staining using with the fluorescent dyes Annexin V (Annexin V-PE Apoptosis Detection Kit I, BD Pharmigen, San Diego, Calif.) and 7-amino-actinomycin D (7-ADD) (BD Pharmigen), and flow cytometry analysis, was employed to assess the viability/apoptosis status of C4BP α7β1-, C4BP α7β0-, recC4BP α6β0-, or Factor H-treated and untreated Mo-DCs."}, "LPS-matured DCs": {"test_system": "LPS-matured DCs", "test": "Phenotype stability after re-stimulation with TNF-alpha+IFN-gamma", "type": "cell-based, human", "settings": "TNF-alpha+IFN-gamma for 24 h without immunomodulatory agents", "experimental": "The stability of C4BP(β−)- or FH-treated and LPS-matured DCs was evaluated after further 24 h of induction with pro-inflammatory TNF-alpha (100 U/ml)+IFN-gamma (1000 U/ml) in complete medium without immunomodulatory agents (C4BP(β−) or FH). Median fluorescence intensities (MIF) of DC markers CD83 (A) and CD86 (B) were determined for all DC conditions (with or without TNF-alpha+IFN-gamma). iDC, immature DCs; mDC, untreated LPS-matured DCs; B-5, C4BP(β−)-treated (5 μg/ml) and LPS-matured DCs; WT5, C4BP(β+)-treated (5 μg/ml) and LPS-matured DCs; Rec2, recombinant C4BP(β−)-treated (2 μg/ml) and LPS-matured DCs; FH5, FH-treated (5 μg/ml) and LPS-matured DCs (n=6 per group).\nDue to their potential use in the clinical setting, we aimed to study whether an ulterior activation of C4BP(β−)- or FH-treated and LPS-matured DCs would modify the phenotype of these tolerogenic DCs. Therefore, both untreated and C4BP(β−)- or FH-treated DCs were matured with LPS, as previously mentioned, and then re-stimulated without immunomodulatory agents (C4BP(β−) or FH) using TNF-alpha+IFN-gamma for 24 h. […] These tolerogenic C4BP(β−)- or FH-treated DCs were thus phenotypically refractory to secondary stimulation, confirming their stable non-proinflammatory profile."}, "CD3+ T lymphocytes": {"test_system": "CD3+ T lymphocytes", "test": "Determination of CD4+ CD127low/negative CD25high Foxp3+ T cells", "type": "cell-based, human", "settings": "T cells stimulated 6 days with treated, LPS-matured DCs", "experimental": "CD3^+ T lymphocytes were purified from mononuclear cells by negative selection using an EasySep® Human T Cell Enrichment Kit (StemCell Technologies) following the manufacturer's instructions. Purity was >95% in all experiments. Enriched T cells were plated (10^5 cells/well) in 96-well round-bottom plates. […] Stained cells were analysed using a FACSCanto II (Becton Dickinson) and the results were analysed using FlowJo software (Tree Star, Inc, OR, USA)."}, "[3]": {"settings": "surface marker, treated and LPS-induced DCs"}, "[4]": {"settings": "treated throughout differentiation and maturation, LPS-matured"}, "[5]": {"settings": "cytokine, treated and LPS-induced DCs"}, "[6]": {"settings": "pre-treated at 2 μg/ml, matured with LPS"}}}
{"molecule": "C4BP α7β1: major C4BP isoform, 7 identical α-chains and 1 β-chain, purified from pooled human plasma (protein, UniProt P04003 49-597; P20851 18-252, looked up) C4b-binding protein alpha …: NCGPPPTLSFAAPMDITLTETRFKTGTTLKYTCLPGYVRSHSTQTLTCNSDGEWVYNTFCIYKRCRHPGELRNGQVEIKTDLSFGSQIEFSCSEGFFLIGSTTSRCEVQDRGVGWSHPLPQCEIVKCKPPPDIRNGRHSGEENFYAYGFSVTYSCDPRFSLLGHASISCTVENETIGVWRPSPPTCEKITCRKPDVSHGEMVSGFGPIYNYKDTIVFKCQKGFVLRGSSVIHCDADSKWNPSPPACEPNSCINLPDIPHASWETYPRPTKEDVYVVGTVLRYRCHPGYKPTTDEPTTVICQKNLRWTPYQGCEALCCPEPKLNNGEITQHRKSRPANHCVYFYGDEISFSCHETSRFSAICQGDGTWSPRTPSCGDICNFPPKIAHGHYKQSSSYSFFKEEIIYECDKGYILVGQAKLSCSYSHWSAPAPQCKALCRKPELVNGRLSVDKDQYVEPENVTIQCDSGYGVVGPQSITCSGNRTWYPEVPKCEWETPEGCEQVLTGKRLMQCLPNPEDVKMALEVYKLSLEIEQLELQRDSARQSTLDKEL C4b-binding protein beta chain: SDAEHCPELPPVDNSIFVAKEVEGQILGTYVCIKGYHLVGKKTLFCNASKEWDNTTTECRLGHCPDPVLVNGEFSSSGPVNVSDKITFMCNDHYILKGSNRSQCLEDHTWAPPFPICKSRDCDPPGNPVHGYFEGNNFTLGSTISYYCEDRYYLVGVQEQQCVDGEWSSALPVCKLIQEAPKPECEKALLAFQESKNLCEAMENFMQQLKESGMTMEELKYSLELKKAELKAKLL", "values": [{"measurement": "expression of surface markers (CD14, HLA-DR, CD40, CD80, CD83, CD86, CD1a)", "setting": "human Mo-DCs [1]; treated throughout differentiation and maturation, LPS-matured, vs untreated mDC", "result": "no effect"}, {"measurement": "release of cytokines (IL-12p70, IL-10, IL-8, IL-6, TNF-α, IFN-γ)", "setting": "LPS-matured human Mo-DCs; pre-treated Mo-DCs matured with LPS, C4BP 2 μg/ml, Factor H 5 μg/ml", "result": "the same cytokine levels than untreated Mo-DCs"}]}
{"molecule": "C4BP (β^−): C4BP isoforms lacking beta chain: C4BP (α7β0) or C4BP (α6β0) (protein, UniProt P04003 49-597, looked up) C4b-binding protein alpha …: NCGPPPTLSFAAPMDITLTETRFKTGTTLKYTCLPGYVRSHSTQTLTCNSDGEWVYNTFCIYKRCRHPGELRNGQVEIKTDLSFGSQIEFSCSEGFFLIGSTTSRCEVQDRGVGWSHPLPQCEIVKCKPPPDIRNGRHSGEENFYAYGFSVTYSCDPRFSLLGHASISCTVENETIGVWRPSPPTCEKITCRKPDVSHGEMVSGFGPIYNYKDTIVFKCQKGFVLRGSSVIHCDADSKWNPSPPACEPNSCINLPDIPHASWETYPRPTKEDVYVVGTVLRYRCHPGYKPTTDEPTTVICQKNLRWTPYQGCEALCCPEPKLNNGEITQHRKSRPANHCVYFYGDEISFSCHETSRFSAICQGDGTWSPRTPSCGDICNFPPKIAHGHYKQSSSYSFFKEEIIYECDKGYILVGQAKLSCSYSHWSAPAPQCKALCRKPELVNGRLSVDKDQYVEPENVTIQCDSGYGVVGPQSITCSGNRTWYPEVPKCEWETPEGCEQVLTGKRLMQCLPNPEDVKMALEVYKLSLEIEQLELQRDSARQSTLDKEL", "values": [{"measurement": "surface receptor CCR7 on Mo-DCs", "setting": "human Mo-DCs [1]; flow cytometry (MFI), LPS-matured", "result": "consistent down-regulation"}, {"measurement": "CCR7", "setting": "human Mo-DCs [1]; [3]", "result": "++"}, {"measurement": "CD1a", "setting": "human Mo-DCs [1]; [3]", "result": "+"}, {"measurement": "CD14", "setting": "human Mo-DCs [1]; [3]", "result": "+"}, {"measurement": "CD40", "setting": "human Mo-DCs [1]; [3]", "result": "++"}, {"measurement": "CD83", "setting": "human Mo-DCs [1]; [3]", "result": "+"}, {"measurement": "CD86", "setting": "human Mo-DCs [1]; [3]", "result": "+"}, {"measurement": "HLA-DR", "setting": "human Mo-DCs [1]; [3]", "result": "+++"}, {"measurement": "CD40 expression", "setting": "human Mo-DCs [1]; [4]", "result": "unaltered"}, {"measurement": "HLA-DR expression", "setting": "human Mo-DCs [1]; [4]", "result": "unaltered"}, {"measurement": "Apoptosis after treatment", "setting": "human Mo-DCs [2]", "result": "−"}, {"measurement": "DC phenotype regarding the CD83 and CD86 markers after re-stimulation", "setting": "LPS-matured DCs", "result": "did not induce significant changes"}, {"measurement": "DC viability after re-stimulation", "setting": "LPS-matured DCs; not shown", "result": "did not induce significant changes"}, {"measurement": "IFN-γ", "setting": "LPS-matured human Mo-DCs; [5]", "result": "−"}, {"measurement": "IL-6", "setting": "LPS-matured human Mo-DCs; [5]", "result": "+"}, {"measurement": "IL-8", "setting": "LPS-matured human Mo-DCs; [5]", "result": "++"}, {"measurement": "IL-10", "setting": "LPS-matured human Mo-DCs; [5]", "result": "+++"}, {"measurement": "IL-12", "setting": "LPS-matured human Mo-DCs; [5]", "result": "−"}, {"measurement": "TNF-α", "setting": "LPS-matured human Mo-DCs; [5]", "result": "+"}, {"measurement": "production of IL-10", "setting": "LPS-matured human Mo-DCs; [6]", "result": "increased the production"}, {"measurement": "release of IFN-γ", "setting": "LPS-matured human Mo-DCs; [6]", "result": "prevented the release"}, {"measurement": "release of IL-6", "setting": "LPS-matured human Mo-DCs; [6]", "result": "reduced the release"}, {"measurement": "release of IL-8", "setting": "LPS-matured human Mo-DCs; [6]", "result": "reduced the release"}, {"measurement": "release of IL-12p70", "setting": "LPS-matured human Mo-DCs; [6]", "result": "prevented the release"}, {"measurement": "release of TNF-α", "setting": "LPS-matured human Mo-DCs; [6]", "result": "prevented the release"}, {"measurement": "percentage of CD4+Foxp3+ and CD25^high, CD127^low/negative cells", "setting": "CD3+ T lymphocytes", "result": "significant increase"}]}
